A short description of this data set: label from the status in PepcDB records.
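Note: failed if final PepcDB status was selected cloned or expressed and not failed if soluble or beyond.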

In the case of “MNGSLQRSHMEIVPDTSVVIDGRVSDQVKADADPDTDVDGMGFAGATVVVPEAVVGELEAQANDGRETGWEGLEELQTLVDLAEEGTIDVEYVGRRPDAIEKREAGEGQIDALIRDIAGDRDATLVTSDDVQAEVARAKGLAVEFVDPVKRTVDRLQI”, the protein production entry is listed as “failed”.

“MNGSLQTADRTPVDYVNPYIGNISHLLVPTFPTIQLPNSMLRVYPERADYTSELLKGLPLIVTNHRERSAFNFSPYQGEKLRPVITYNYDNEHITPYSFDVELDDNRMKAEYALSHQSAIYRITYEADKPAYLIVNSRNGSIHANENFISGRQQLNDNTNVYVYIEAQEKPLEHHHHHH”: the protein production result is “not failed”.

Take “MNGYTISAIYAHIASGISLEKRKGFFEMLDEIINNKVEKVIITYKDRLSRVGFDLFSYLFRKYRTEIAVISEVGNTKLDSEEVFEEIVSMLHSYSMKMYSKRKNHYIEVGYEG”: the protein production result is given as “failed”.

As for “MNHDIDIKKVRLNCFRQSKVPGEFMLQMRIPGGIVDAKYLSQIQEIAETWGNGTFHMGMRQTFNIPGIKYENIQAVNKFIENYLQEVEVDRCNCDMKVDENGYPTIGARNVMACIGNSHCIKANVDTKDMANKIEKLVFPSHYHIKVSVAGCPNDCAKGHFQDFGVIGQARMEYHEERCIGCGACVRACEHHATRVLSLNDKGLVDKDPCCCVGCGECVLACPASAWTRKPEKFYRIVIGGRTGKQTPRMGKTFINFATEEVVLGIFANWQKFSAWALDYKPEYLHGGHLIDRAGYHKFKEIILDGVELNPEALVADNIFWAETEYRSNFNVKPIKMHKTIESNRPLRLEHHHHHH”, the protein production result was “failed”.

“MNHEAVQNYYGEVLQSSADLQTNACCTPDAVPAHLKPVLGKLHDEVMARYYGCGLIAPLALEGARILDLGCGAGRDVYALSALVGESGAVVGVDMTPAQLEVAQAHRAYHAEVFGHAAPNTEFHQGYIEKLDDLPLKPGSFDIIVSNCVLNLATDKAAVLRGAQRLLKPGGEMYFSDVYADRRIPEALARDEVLYGECLSGALYWNDFLSLARGAGFGDPRMVESRLLTIENPELERRVGPIRFLSATYRLFNLAGLEPDCEDYGQAVIYKGTVPHAPHEFVLDDHHVIETGKVFPVCGNSWRMLAESRFAPHFQFIGDFSTHYGIFAGCGGASPFNGLSPVAPAASGGCC”: the protein production result is listed as “failed”.

With “MNIAPLKVSLLSLALLLSPVASLPAHAACTANLALQPASSLPALGGRLVYHSYMEYGDGSSNLYLHDFKSKSTRQLNQPGWNIEDPMNAHFSPDGRYLTFMGRQNGAWHVFAWAIGGTQAPSNLTAAIGGRNEDPKFSFDGRQVVLKHEGDIRLATLVFNGDGSVGVSAWKAVTGDGWSTEESMPFLTPSGKYVVYATGAGDSLRVVRRNLENGQVCALATPAAGGRDYYPVVRDYTAYFLSRTQPAGNDQLAMVVPNSPPGTPAILPLNHCQGDNSDAAPVNEDYLIFSSTSFDPTYSLLLGDIAAARVWRLDPAQINLPDGRQKLGASYTAAR”, the protein production result is reported as “failed”.

“MNIAPVVDSLSAPAMLEELKQSPPWLRLSLLFPLFFLNGWLIYKAMGFLQPLSSLLVAAALLAFLLDIPVRILVEKGLKRPWAVASVLLIALVVISLFLLIVIPLAIDQLGQLLDNLPGWFRSGNAQLLMLQAWVNEHYANLQVDLQPLISQAIEKLSRILNSFGNQLLGLVGVTISTSINGLILLVLTIFLVLGGEKIWDGIFSWFPHPWQRDLQNLIRDTFEGYFATQAILAGILSVAQMVVFTLLQAPYAILFAITIGLSTLIPFASALSIIVISLLLMLENFWLGVKILLAAVIVGQINDNVISPRLMGNRTGLNPAWIIVSLFVGSKLGGVLGLLVAVPLASVIKATSDRLRGLPKKSGEQPAEVSVVST”: the protein production result is recorded as “failed”.

Consider “MNIEDDENKEKKETCLSYIKKINMSEIINDEAIGKRAEYLWNLALSAVYINVKLSMKYITLIKKITKNNLLFDNICCHYCNLIYIPFYNCKITHSPNQGKATYTCLLCKRKKKINLQHLSKHKNIYPLKHSDKHKPSTSNLSNVNFFLINEIDNYEIKKNNVPLNKDDTSNTENQLITKQENKNEDTLKDVSCADMQKEEHIINQDNIINQDNIINQDNIINQDNIINQDNIINQDNIINQDNIINQDNIINQDNIINQDNIINKNDMYQNLSYLFRIDYGINKDDTQKGNEIYDKSIVNESEKCKSVHIENNKNDDNKNMNSESKNIKNERKRKSQNNNIAQNKNQGFPNVNMNDGFLNFNKSKKKKGKSILDIL”, for which the protein production entry is given as “failed”.
